Experimental data as given in article PMC2121097.
Where two headings read alike, the source gives them in different places.

Legend:
[1] = molecular target: Dictyostelium actin filaments (F-actin) (Dictyostelium) (UniProt P07830); test: steady-state actin critical concentration, sedimentation
[2] = molecular target: Dictyostelium actin filaments (F-actin) (Dictyostelium) (UniProt P07830); test: steady-state actin critical concentration, calibrated pyrene fluorescence
[3] = molecular target: Dictyostelium actin filaments (F-actin) (Dictyostelium) (UniProt P07830); test: steady-state actin critical concentration, uncalibrated pyrene fluorescence
[4] = molecular target: Dictyostelium actin monomer (G-actin) (Dictyostelium) (UniProt P07830); test: other fluorescence titration
[5] = molecular target: Dictyostelium actin monomer (G-actin) (Dictyostelium) (UniProt P07830); test: other fluorescence titration; remark: listed apart in the source
[6] = molecular target: Dictyostelium actin monomer (G-actin) (Dictyostelium) (UniProt P07830); test: other fluorescence titration; remark: listed apart in the source

Substance: Dictyostelium elongation factor 1 alpha (EF1 alpha) (from UniProt P0CT31 1-453) (natural protein)
- Kd [1]: 400 nM
- Kd [2]: 140 nM
- Kd [3]: 920 nM
- Kd [4]: 700 nM
- Kd [5]: 3900 nM
- Kd [6]: 1400 nM
